Results from article PMC6384963, “The β-N-Acetylhexosaminidase in the Synthesis of Bioactive Glycans: Protein and Reaction Engineering” (Molecules, 2019).
Residue numbers refer to the chain shown, from its start. Numbers in names are those of the source.

B1: TfHex (β-N-acetylhexosaminidase from Talaromyces flavus) (Talaromyces flavus; Y470N) (protein)
chain: VAVNPLPAPRSITWGTSGPISVPHNVDVKLPKNAIINDAWERAWTSIKQLRWVPQATEAPISSYEPFPTVAPTSASTASSTPLPSSSAAAVAARSQKRGHQKGSHEKRGHSQSTLRTVTVTVSDLNADLQAEVDESYTLVLDSGSSTLAITANTTWGALHAFTTLQQLVIYQDNSLIIEQPVHIEDSPLYPWRGVMIDTGRNFITVPKIKEQIDGMALSKLNILHWHLDDSQSWPVHMDTYPQMTNDAYSPWQTYSHEDIKDIIEYARARAVRVVPEVDMPGHSAAGWQQVDPSIVACAHSWWSNDNWPYHTAVEPTPGQLDPLNNKTYGVVEKVYNELSGIFTDDFFHVGGDELQTGCYNFSTYVSDYLAADPSRTYNDVTQYWVDHAFPIFKKIQNRKLVIWEDLIINNPHAPNVSTENLLVQSWNNGLTNINNLTNLGYDVLVSSSDFMNLDCGYGGFVTNDPRYDVMVNPDAVDGLANFNWGGNGGSWCAPYKTWQRIYDYDFTTNLTDAQAAHVKGAVAPLWSEQVDDTVISGKMWPRAAALAELVWSGNKDPKTGDKRTTYMTQRILNFREYLVANGVQAAPLVPKYCLQHPHSCDLYYDQTAVV
notes: secreted from Pichia pastoris KM71H, pPICZαA vector; purified by cation-exchange chromatography
B2: TfHex (β-N-acetylhexosaminidase from Talaromyces flavus) (Talaromyces flavus) (protein)
chain: B1 chain with N453Y
notes: as for B1
B3: TfHex (β-N-acetylhexosaminidase from Talaromyces flavus) (Talaromyces flavus; Y470F) (protein)
chain: B1 chain with N453F
notes: as for B1
B4: TfHex (β-N-acetylhexosaminidase from Talaromyces flavus) (Talaromyces flavus; Y470H) (protein)
chain: B1 chain with N453H
notes: as for B1

Substrate: CC(=O)N[C@H]1[C@H](Oc2ccc([N+](=O)[O-])cc2)O[C@H](CO)[C@@H](O)[C@@H]1O
Test: purified protein
Assay type: biochemical, Talaromyces flavus
Details: McIlvaine buffer pH 5.0, 25 °C, hydrolysis

Protein	Km [µM]	kcat [s⁻¹]	kcat/Km [M⁻¹ s⁻¹]
B1	890 ± 130	11.6 ± 0.6	13000
B2	110 ± 20	47 ± 1	434000
B3	23 ± 8	0.27 ± 0.01	12000
B4	53 ± 8	0.67 ± 0.02	13000

Substrate: CC(=O)N[C@H]1[C@H](Oc2ccc([N+](=O)[O-])cc2)O[C@H](CO)[C@H](O)[C@@H]1O
Test: purified protein
Assay type: biochemical, Talaromyces flavus
Details: McIlvaine buffer pH 5.0, 25 °C, hydrolysis

Protein	Km [µM]	kcat [s⁻¹]	kcat/Km [M⁻¹ s⁻¹]
B1	890 ± 90	0.35 ± 0.01	400
B2	690 ± 90	104 ± 5	150000
B3	50 ± 5	0.166 ± 0.003	3300
B4	350 ± 30	0.188 ± 0.004	530
